Measured values from the nanobody polyreactivity screen of Harvey et al. (2022).

Assay: yeast display, Sf9 membrane polyspecificity reagent, FACS + sequencing; frameworks hold sequencing errors
How it was run: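 Sorting gates, low and high (top ~1%), were placed on anti-HA fluorescence to track expression and on streptavidin fluorescence to track reagent binding. A clone's polyreactivity label is taken from the gate it came out of. The reagent was 10% biotinylated, detergent-solubilized Sf9 membrane, applied for 1 hour at 4 °C to galactose-induced yeast display cells.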

Sequence | polyreactivity (PSR sort gate)
QVQLVESGGGLVQAGGSLRLSCAASGRIFSYYAMGWYRQAPGKERELVAAISKGGTSTYYADSVKGRFTISRDNSKNTVYLQMNRLKPEDTAVYYCAAARPKPVDYLGQGTQVTVSS | high polyreactivity
QVQLVESGGGLVQAGGSLRLSCAASGRIFSYYAMGWYRQAPGKERELVASISTSSGSTYYADSVKGRFTISRDNAKNTVYLQMNSLKPEDTAVYYCNADYTGYYRWRNDDYWGQGTQVTVSS | high polyreactivity
QVQLVESGGGLVQAGGSLRLSCAASGRIFSYYAMGWYRQAPGKERELVASITSGGSTYADSVKGRFTISRDNAKNTVYLQMNSLKPEDTAVYYCNARKRHYYGYYYWGQGTQVTVSS | high polyreactivity
QVQLVESGGGLVQAGGSLRLSCAASGRIFSYYTMGWYRQAPGKEREMVAAITWNGGSTYYADSVKGRFTISRDNAKNTVYLQMNSLKPEDTGVYYCNRDVRYVGPSGFDYWGQGTQVTVSS | high polyreactivity
QVQLVESGGGLVQAGGSLRLSCAASGRIFSYYTMGWYRQAPGTERELVAAITWGGGSTSYADSVKGRFTISRDNAKNTVYLQMNSLKPEDTAVYYCAESPGANRMDYWGQGTQVTVSS | low polyreactivity
QVQLVESGGGLVQAGGSLRLSCAASGRIFSYYTMGWYRQEPRKERELVATITSGVNTNYADSVKGRFTISRDNAKNTVYLQMNSLKPEDTAVFYCIARGTAERDYWGQGTQVTVSS | high polyreactivity
QVQLVESGGGLVQAGGSLRLSCAASGRIFSYYVMGWSRQAPGKERELVAAISYRGGGTYYADSVKGRFTISRDNAKNTVYLQMNSLKPEDTAVYYCNADTYSNTYRAYDYWGQGTQVTVSS | low polyreactivity
QVQLVESGGGLVQAGGSLRLSCAASGRIFTANAMGWYRQAPGKERELVAAISWRGGSTYYADSVKGRFTISRDNAKNTVYLQMNSLKPEDTAVYYCNKVGATWRQWFGYWGQGTQVTVSS | high polyreactivity
QVQLVESGGGLVQAGGSLRLSCAASGRIFTAYTMGWYRQAPGKERELVAAISTSGTSTYYADSVKGRFTISRDNAKNTVYLQMHSLKPEDTAVYYCATDYYYYPHSQYDYWGQGTQVTVSS | low polyreactivity
QVQLVESGGGLVQAGGSLRLSCAASGRIFTEYVMGWYRQAPGKERELVAAAITRGGSTNYADSVKGRFTISRDNAKNTVYLQMNSLKPEDTAVYYCNKDDWPVSRQLYTGKYDSWGQGTQVTVSS | low polyreactivity
QVQLVESGGGLVQAGGSLRLSCAASGRIFTGNALGWYRPAPGKERELVAGISTSGGSTYYADSVKGRFTISRDNAKNTVYLQMNSLKPEDTAVYYCAADWYYRRSYRRMNYWGQGTQVTVSS | high polyreactivity
QVQLVESGGGLVQAGGSLRLSCAASGRIFTGNTMGWYRQAPGKERELVATINSNGGSTYYADSVKGRFTISRDNAKNTVYLQMNSLKPEDTAVYYCAVVRNYVSRYRFYYWGQGTQVTVSS | high polyreactivity
QVQLVESGGGLVQAGGSLRLSCAASGRIFTGNVMGWYRQAPGKERELVAAITYRGGSTYYADSVKGRFTISRDNAKNTVYLQMNSLKPEDTAVYYCAAGYFLGHTYGGDYWGQGTQVTVSS | low polyreactivity
QVQLVESGGGLVQAGGSLRLSCAASGRIFTGYAMGWSRQAPGKERELVASITWRGGSTSYADSVKGRFTISRDNAKNTVYLQMNRLKPEDTAVYYCAAQKWYYPYYWGQGTQVTVSS | high polyreactivity
QVQLVESGGGLVQAGGSLRLSCAASGRIFTGYAMGWYRQAPGKERELVAAINSGGRTNYADSVKGRFTISRDNAKNTVYLQMNSLKPEDTAVYYCAARYTNYGGYYWGQGTQVTVSS | high polyreactivity
QVQLVESGGGLVQAGGSLRLSCAASGRIFTGYAMGWYRQAPGKERELVAAISRGGSTNYADSVKGRFTISRDNAKNTVFLQMNSLKPEDTAVYYCAAGVHWDRGDYWGQGTQVTVSS | low polyreactivity
QVQLVESGGGLVQAGGSLRLSCAASGRIFTHNAMGWYRQAHGKERELVAAISFSGVSTYYADSVKGRFTISRDNAKNTVYLQMNSLKPEDTAVYYCARRYWYPDAFYRYDYWGQGTQVTVSS | low polyreactivity
